Numbering of substitutions follows the chain as printed.
What was measured:
[1] = molecular target: agrin (endogenous, in mouse spinal cord and brain), A2ASQ1
[2] = molecular target: agrin-EGFP
[3] = molecular target: rat agrin, transmembrane isoform containing the splice variants Y4 and Z8, P25304
[4] = molecular target: T1, agrin-C45
T1 chain: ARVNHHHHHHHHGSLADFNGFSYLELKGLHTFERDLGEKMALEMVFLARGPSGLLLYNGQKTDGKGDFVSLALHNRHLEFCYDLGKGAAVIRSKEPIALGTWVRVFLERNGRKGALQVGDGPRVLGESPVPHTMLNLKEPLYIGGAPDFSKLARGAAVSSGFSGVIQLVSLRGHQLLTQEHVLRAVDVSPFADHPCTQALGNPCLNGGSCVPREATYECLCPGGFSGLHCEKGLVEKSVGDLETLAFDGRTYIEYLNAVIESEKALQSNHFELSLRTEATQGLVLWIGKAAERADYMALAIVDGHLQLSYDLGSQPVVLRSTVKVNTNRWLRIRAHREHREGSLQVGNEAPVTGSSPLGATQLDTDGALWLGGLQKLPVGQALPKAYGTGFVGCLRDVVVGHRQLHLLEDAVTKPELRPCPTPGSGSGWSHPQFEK

Sequence of rat agrin, transmembrane isoform containing the splice variants Y4 and Z8, P25304 (P25304 whole entry, looked up, change not shown, canonical isoform): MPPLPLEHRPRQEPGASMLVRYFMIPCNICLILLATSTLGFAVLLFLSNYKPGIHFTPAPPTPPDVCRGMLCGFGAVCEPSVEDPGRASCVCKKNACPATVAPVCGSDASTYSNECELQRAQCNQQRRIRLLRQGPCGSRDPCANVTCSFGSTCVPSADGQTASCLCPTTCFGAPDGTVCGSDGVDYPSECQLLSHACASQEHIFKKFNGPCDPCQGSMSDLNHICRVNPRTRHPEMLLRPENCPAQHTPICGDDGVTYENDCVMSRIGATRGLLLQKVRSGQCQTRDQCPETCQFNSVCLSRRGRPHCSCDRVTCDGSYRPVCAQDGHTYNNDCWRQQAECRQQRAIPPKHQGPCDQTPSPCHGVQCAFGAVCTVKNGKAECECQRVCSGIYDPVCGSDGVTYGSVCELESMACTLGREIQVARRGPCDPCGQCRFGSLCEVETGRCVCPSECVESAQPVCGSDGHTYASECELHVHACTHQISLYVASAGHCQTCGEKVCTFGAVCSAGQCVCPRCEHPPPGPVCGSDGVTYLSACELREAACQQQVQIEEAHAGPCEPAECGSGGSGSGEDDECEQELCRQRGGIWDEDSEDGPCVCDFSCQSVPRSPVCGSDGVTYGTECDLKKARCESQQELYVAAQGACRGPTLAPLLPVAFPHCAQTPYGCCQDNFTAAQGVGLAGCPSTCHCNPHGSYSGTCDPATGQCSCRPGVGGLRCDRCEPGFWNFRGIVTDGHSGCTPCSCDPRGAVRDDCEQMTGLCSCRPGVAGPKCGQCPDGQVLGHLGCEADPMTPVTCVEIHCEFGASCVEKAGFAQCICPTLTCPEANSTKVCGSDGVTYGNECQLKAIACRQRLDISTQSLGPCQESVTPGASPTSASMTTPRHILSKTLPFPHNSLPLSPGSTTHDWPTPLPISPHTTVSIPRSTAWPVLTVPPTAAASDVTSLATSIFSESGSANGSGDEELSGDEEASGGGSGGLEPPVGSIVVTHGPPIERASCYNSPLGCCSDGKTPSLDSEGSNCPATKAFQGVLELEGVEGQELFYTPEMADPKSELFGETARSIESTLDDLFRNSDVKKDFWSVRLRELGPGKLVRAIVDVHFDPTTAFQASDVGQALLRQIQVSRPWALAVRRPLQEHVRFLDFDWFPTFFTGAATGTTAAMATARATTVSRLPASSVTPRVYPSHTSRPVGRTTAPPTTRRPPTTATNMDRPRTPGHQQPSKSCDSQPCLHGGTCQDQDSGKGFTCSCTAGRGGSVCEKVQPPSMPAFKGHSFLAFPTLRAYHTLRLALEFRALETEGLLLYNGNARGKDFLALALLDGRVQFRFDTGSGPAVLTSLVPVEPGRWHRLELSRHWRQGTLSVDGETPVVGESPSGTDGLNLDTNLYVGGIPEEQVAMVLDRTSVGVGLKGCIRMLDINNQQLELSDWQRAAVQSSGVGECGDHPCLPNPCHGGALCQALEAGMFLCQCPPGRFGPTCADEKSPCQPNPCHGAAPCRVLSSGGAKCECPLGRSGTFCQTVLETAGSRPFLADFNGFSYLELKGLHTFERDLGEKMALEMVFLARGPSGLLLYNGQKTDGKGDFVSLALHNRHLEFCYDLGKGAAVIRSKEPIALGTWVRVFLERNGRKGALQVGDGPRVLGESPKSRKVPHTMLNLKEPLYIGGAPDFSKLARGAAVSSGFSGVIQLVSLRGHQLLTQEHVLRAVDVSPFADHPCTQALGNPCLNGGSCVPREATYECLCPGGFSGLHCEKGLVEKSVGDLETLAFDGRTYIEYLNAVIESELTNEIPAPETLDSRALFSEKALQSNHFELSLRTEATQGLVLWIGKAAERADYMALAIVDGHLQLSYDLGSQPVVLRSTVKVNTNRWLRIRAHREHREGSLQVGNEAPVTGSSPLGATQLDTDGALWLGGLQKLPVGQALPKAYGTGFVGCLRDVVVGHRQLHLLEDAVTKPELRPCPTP
Sequence of agrin (endogenous, in mouse spinal cord and brain), A2ASQ1 (A2ASQ1 whole entry): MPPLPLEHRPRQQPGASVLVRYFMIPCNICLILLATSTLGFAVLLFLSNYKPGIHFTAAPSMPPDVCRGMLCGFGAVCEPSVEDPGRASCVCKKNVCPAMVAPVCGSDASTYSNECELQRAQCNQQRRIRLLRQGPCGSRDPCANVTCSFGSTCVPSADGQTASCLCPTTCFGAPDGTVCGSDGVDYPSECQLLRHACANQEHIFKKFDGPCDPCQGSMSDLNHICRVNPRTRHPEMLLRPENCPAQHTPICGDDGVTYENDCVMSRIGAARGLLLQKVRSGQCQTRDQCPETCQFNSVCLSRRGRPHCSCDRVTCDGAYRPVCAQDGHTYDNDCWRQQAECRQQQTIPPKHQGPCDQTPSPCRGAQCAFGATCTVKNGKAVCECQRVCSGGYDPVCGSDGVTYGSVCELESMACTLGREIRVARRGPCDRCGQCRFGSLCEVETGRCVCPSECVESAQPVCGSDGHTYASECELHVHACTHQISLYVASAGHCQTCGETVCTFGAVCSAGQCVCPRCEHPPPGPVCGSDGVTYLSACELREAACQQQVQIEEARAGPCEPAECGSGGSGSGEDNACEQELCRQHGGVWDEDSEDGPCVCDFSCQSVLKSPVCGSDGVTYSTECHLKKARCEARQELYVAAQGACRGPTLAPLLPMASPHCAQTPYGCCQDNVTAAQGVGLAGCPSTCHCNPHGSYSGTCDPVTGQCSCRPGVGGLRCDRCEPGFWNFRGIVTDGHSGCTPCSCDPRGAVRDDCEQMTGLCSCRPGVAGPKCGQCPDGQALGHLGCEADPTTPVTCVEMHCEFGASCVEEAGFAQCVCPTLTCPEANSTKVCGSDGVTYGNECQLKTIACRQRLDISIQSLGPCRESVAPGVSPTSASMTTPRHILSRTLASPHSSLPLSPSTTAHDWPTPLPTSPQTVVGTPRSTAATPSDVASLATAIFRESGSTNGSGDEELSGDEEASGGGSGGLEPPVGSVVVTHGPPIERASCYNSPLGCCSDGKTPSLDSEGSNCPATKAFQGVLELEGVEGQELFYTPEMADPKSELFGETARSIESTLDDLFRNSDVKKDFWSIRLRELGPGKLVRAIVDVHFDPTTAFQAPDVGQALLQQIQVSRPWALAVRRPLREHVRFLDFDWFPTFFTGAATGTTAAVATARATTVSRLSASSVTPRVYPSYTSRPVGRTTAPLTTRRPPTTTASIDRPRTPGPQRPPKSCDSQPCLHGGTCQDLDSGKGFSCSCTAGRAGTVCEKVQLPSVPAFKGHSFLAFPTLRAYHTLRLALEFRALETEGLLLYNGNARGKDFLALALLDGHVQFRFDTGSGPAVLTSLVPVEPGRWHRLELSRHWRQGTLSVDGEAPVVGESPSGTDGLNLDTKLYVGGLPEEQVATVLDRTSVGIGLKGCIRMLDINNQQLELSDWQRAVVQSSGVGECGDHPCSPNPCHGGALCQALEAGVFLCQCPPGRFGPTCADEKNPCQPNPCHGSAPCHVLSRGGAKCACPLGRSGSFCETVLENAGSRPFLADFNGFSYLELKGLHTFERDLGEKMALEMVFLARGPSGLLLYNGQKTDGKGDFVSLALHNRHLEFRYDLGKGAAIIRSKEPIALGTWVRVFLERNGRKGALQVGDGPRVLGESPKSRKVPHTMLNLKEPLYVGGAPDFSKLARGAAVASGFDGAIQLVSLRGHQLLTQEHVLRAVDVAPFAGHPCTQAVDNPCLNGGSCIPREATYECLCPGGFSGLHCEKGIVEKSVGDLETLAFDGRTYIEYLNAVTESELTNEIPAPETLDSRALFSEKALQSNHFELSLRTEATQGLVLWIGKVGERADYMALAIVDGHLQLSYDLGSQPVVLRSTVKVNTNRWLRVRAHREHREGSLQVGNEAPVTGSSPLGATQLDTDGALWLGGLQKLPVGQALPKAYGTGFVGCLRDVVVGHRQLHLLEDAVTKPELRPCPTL

B1: mouse neurotrypsin (protein)
chain: DPVSRSPLHRPHPSPPRSQHAHYLPSSRRPPRTPRFPLPLRIPAAQRPQVLSTGHTPPTIPRRCGAGESWGNATNLGVPCLHWDEVPPFLERSPPASWAELRGQPHNFCRSPDGSGRPWCFYRNAQGKVDWGYCDCGQGPALPVIRLVGGNSGHEGRVELYHAGQWGTICDDQWDNADADVICRQLGLSGIAKAWHQAHFGEGSGPILLDEVRCTGNELSIEQCPKSSWGEHNCGHKEDAGVSCVPLTDGVIRLAGGKSTHEGRLEVYYKGQWGTVCDDGWTEMNTYVACRLLGFKYGKQSSVNHFDGSNRPIWLDDVSCSGKEVSFIQCSRRQWGRHDCSHREDVGLTCYPDSDGHRLSPGFPIRLVDGENKKEGRVEVFVNGQWGTICDDGWTDKHAAVICRQLGYKGPARARTMAYFGEGKGPIHMDNVKCTGNEKALADCVKQDIGRHNCRHSEDAGVICDYLEKKASSSGNKEMLSSGCGLRLLHRRQKRIIGGNNSLRGAWPWQASLRLRSAHGDGRLLCGATLLSSCWVLTAAHCFKRYGNNSRSYAVRVGDYHTLVPEEFEQEIGVQQIVIHRNYRPDRSDYDIALVRLQGPGEQCARLSTHVLPACLPLWRERPQKTASNCHITGWGDTGRAYSRTLQQAAVPLLPKRFCKERYKGLFTGRMLCAGNLQEDNRVDSCQGDSGGPLMCEKPDESWVVYGVTSWGYGCGVKDTPGVYTRVPAFVPWIKSVTSL
Q: Which “temporal pattern of the C-terminal 100-kDa agrin fragment and of neurotrypsin in mouse spinal cord (Western blot)” value [1] does the source give for B1 here?
A: The value was “Western blotting with antibodies versus the C-terminal moiety of agrin revealed a highly similar temporal pattern”.

Q: And the “150 kDa C-terminal fragment of agrin-EGFP (Western blot)” value [2]?
A: Its value is “Western blot detection of the 150 kDa C-terminal fragment of agrin (Ag-CF) generated by neurotrypsin-mediated cleavage of agrin-EGFP”.

Q: And the “release of a 100-kDa agrin fragment into the culture medium (Western blot)” value [3]?
A: Its value is “In 200 µl culture medium of double transfected HEK293T cells a 100-kDa band was detected with the anti-agrin antibody”.

B2: catalytically inactive neurotrypsin (Neurotrypsin Ser711Ala) (protein)
chain: B1 chain with S690A
Q: Which “release of a 100-kDa agrin fragment into the culture medium (Western blot)” value [3] does the source give for B2 here?
A: Its value is “no signal was detected in medium of HEK293T cells transfected with agrin and catalytically inactive neurotrypsin”.

B3: human neurotrypsin (protein)
chain: FDSVLNDSLHHSHRHSPPAGPHYPYYLPTQQRPPRTRPPPPLPRFPRPPRALPAQRPHALQAGHTPRPHPWGCPAGEPWVSVTDFGAPCLRWAEVPPFLERSPPASWAQLRGQRHNFCRSPDGAGRPWCFYGDARGKVDWGYCDCRHGSVRLRGGKNEFEGTVEVYASGVWGTVCSSHWDDSDASVICHQLQLGGKGIAKQTPFSGLGLIPIYWSNVRCRGDEENILLCEKDIWQGGVCPQKMAAAVTCSFSHGPTFPIIRLAGGSSVHEGRVELYHAGQWGTVCDDQWDDADAEVICRQLGLSGIAKAWHQAYFGEGSGPVMLDEVRCTGNELSIEQCPKSSWGEHNCGHKEDAGVSCTPLTDGVIRLAGGKGSHEGRLEVYYRGQWGTVCDDGWTELNTYVVCRQLGFKYGKQASANHFEESTGPIWLDDVSCSGKETRFLQCSRRQWGRHDCSHREDVSIACYPGGEGHRLSLGFPVRLMDGENKKEGRVEVFINGQWGTICDDGWTDKDAAVICRQLGYKGPARARTMAYFGEGKGPIHVDNVKCTGNERSLADCIKQDIGRHNCRHSEDAGVICDYFGKKASGNSNKESLSSVCGLRLLHRRQKRIIGGKNSLRGGWPWQVSLRLKSSHGDGRLLCGATLLSSCWVLTAAHCFKRYGNSTRSYAVRVGDYHTLVPEEFEEEIGVQQIVIHREYRPDRSDYDIALVRLQGPEEQCARFSSHVLPACLPLWRERPQKTASNCYITGWGDTGRAYSRTLQQAAIPLLPKRFCEERYKGRFTGRMLCAGNLHEHKRVDSCQGDSGGPLMCERPGESWVVYGVTSWGYGCGVKDSPGVYTKVSAFVPWIKSVTKL
Q: Which results are given for B3?
A: cleavage of purified agrin-C45 by purified neurotrypsin (silver stained SDS-PAGE) [4]: The cleavage products agrin-C45 are found between 20 and 25 kDa; cleavage of purified agrin-EGFP by purified neurotrypsin (SDS-PAGE, Western blot) [2]: Lane 2 shows the agrin-EGFP (indicated by arrow marked Ag-EGPF) and the C-terminal fragment of approximately 150 kDa generated by neurotrypsin activity
